The target of data set [1] is human EphB2 full-length Y481E (human) (UniProt P29323).
The target in data set [2] is human EphB2 full-length N482Q (human) (UniProt P29323).
In data set [3] the target is human EphB2 full-length Q472A/Y473A/E480A/Y481A (human) (UniProt P29323).
Data set [4] concerns the molecule itself. Description: crystal structure; unliganded EphB2-ECD at 10 mg/mL in HBS, hanging drop at room temperature, 1.1 M Na Succinate, 0.1 M Na Acetate pH 4.8, 5% MPD, 3% 1,6-Hexanediol; 3.1 Å; head-to-tail contact between neighbouring molecules in the crystal.

Four molecules from publication PMC8508685, “The Ephb2 Receptor Uses Homotypic, Head-to-Tail Interactions within Its Ectodomain as an Autoinhibitory Control Mechanism” (International Journal of Molecular Sciences, 2021) can be followed below.

In the case of “human EphB2 full-length Y481E (from UniProt P29323 19-1055) (receptor)”, in data set [1], the EphB2 kinase domain phosphorylation in HEK293 cells (anti-phosphotyrosine IP, anti-EphB2 blot), compared with the wild-type receptor (% lower than wild type) was found to be 56. Molecule “human EphB2 full-length N482Q (from UniProt P29323 19-1055) (receptor)” showed an EphB2 phosphorylation in HEK293 cells after ephrin stimulation (anti-phosphotyrosine IP, anti-EphB2 blot), band intensity compared with the wild-type receptor (% higher than wild type) in data set [2] of 40. For “human EphB2 full-length Q472A/Y473A/E480A/Y481A (from UniProt P29323 19-1055) (receptor)”, in data set [3], the EphB2 phosphorylation in HEK293 cells after ephrin stimulation (anti-phosphotyrosine IP, anti-EphB2 blot), band intensity compared with the wild-type receptor (% higher than wild type) was found to be 46.

B1: mouse EphB2 extracellular domain (ECD) (residues 19-543) (domain or fragment, UniProt P54763 19-543, looked up)
chain: VEETLMDSTTATAELGWMVHPPSGWEEVSGYDENMNTIRTYQVCNVFESSQNNWLRTKFIRRRGAHRIHVEMKFSVRDCSSIPSVPGSCKETFNLYYYEADFDLATKTFPNWMENPWVKVDTIAADESFSQVDLGGRVMKINTEVRSFGPVSRNGFYLAFQDYGGCMSLIAVRVFYRKCPRIIQNGAIFQETLSGAESTSLVAARGSCIANAEEVDVPIKLYCNGDGEWLVPIGRCMCKAGFEAVENGTVCRGCPSGTFKANQGDEACTHCPINSRTTSEGATNCVCRNGYYRADLDPLDMPCTTIPSAPQAVISSVNETSLMLEWTPPRDSGGREDLVYNIICKSCGSGRGACTRCGDNVQYAPRQLGLTEPRIYISDLLAHTQYTFEIQAVNGVTDQSPFSPQFASVNITTNQAAPSAVSIMHQVSRTVDSITLSWSQPDQPNGVILDYELQYYEKELSEYNATAIKSPTNTVTVQGLKAGAIYVFQVRARTVAGYGRYSGKMYFQTMTEAEYQTSIKEKLPL
modifications: glycosylated at N265, N336, N428 and N482
notes: EphB2 (ephrin type-B receptor 2), mouse, extracellular domain (LBD, CRD, FN1, FN2), residues 19-543; also called EphB2-ECD; EphB2 ECD; not shown: Fc (human), C-terminal, cleaved
On to B1, for which, in data set [4], the binding result is “binds”.
